From patent US20200308290A1 (AbbVie / Abbott, published 2020)
Residue numbers refer to the chain shown, from its start. Names may count otherwise.

T1: human CD25 (recombinant soluble) (human, UniProt P01589 22-240)
T1 construct: extracellular domain; bought protein; also called IL2-Rα; recombinant human IL2-Rα
T1 sequence (looked up): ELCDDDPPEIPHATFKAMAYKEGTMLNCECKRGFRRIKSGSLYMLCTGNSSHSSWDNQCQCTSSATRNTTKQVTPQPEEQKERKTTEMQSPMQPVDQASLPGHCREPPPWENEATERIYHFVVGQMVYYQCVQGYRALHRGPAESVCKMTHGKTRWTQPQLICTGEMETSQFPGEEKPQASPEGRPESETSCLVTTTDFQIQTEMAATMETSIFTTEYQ

T2: CD25 on Kit225/K6 cells (human, UniProt P01589 22-272)
T2 sequence (looked up): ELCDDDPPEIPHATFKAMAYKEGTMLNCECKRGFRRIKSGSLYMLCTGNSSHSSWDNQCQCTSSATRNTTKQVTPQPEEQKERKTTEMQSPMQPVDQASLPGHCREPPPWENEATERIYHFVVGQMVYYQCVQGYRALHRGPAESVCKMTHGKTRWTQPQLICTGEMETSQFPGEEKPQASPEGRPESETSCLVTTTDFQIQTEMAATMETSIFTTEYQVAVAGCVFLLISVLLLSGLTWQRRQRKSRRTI

T3: human CD25 (human, UniProt P01589 22-213, limits assumed)
T3 construct: Recombinant soluble human CD25, coated on plates (ELISA) or injected over captured antibody (BIAcore); also called hCD25; IL2-R alpha
T3 sequence (looked up): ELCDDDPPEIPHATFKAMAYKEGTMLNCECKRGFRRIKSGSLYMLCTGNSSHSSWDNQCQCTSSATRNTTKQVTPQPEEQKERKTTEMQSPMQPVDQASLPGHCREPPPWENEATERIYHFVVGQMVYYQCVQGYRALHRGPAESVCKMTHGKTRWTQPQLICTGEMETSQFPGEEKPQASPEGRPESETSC

T4: human CD25 on cells (human, UniProt P01589 22-272)
T4 sequence (looked up): T2 sequence (looked up)

B1: VRR-SE (antibody, IgG1, name in Kabat numbering, V domains shown)
VH: QVQLVQSGAEVKKPGSSVKVSCKASGYTFTSYRMHWVRQAPGQGLEWIGYIVPRRGYTEYNQKFKDKATITADESTNTAYMELSSLRSEDTAVYYCARGGGVFDYWGQGTLVTVSS
VL: DIQMTQSPSTLSASVGDRVTITCSASSSISYMHWYQQKPGKAPKLLIYTTSELASGVPARFSGSGSGTEFTLTISSLQPDDFATYYCHQRSTYPLTFGQGTKVEVK
notes: IgG1/kappa; also called VRRE-SE
B2: Variant C10 (antibody, name in Kabat numbering, V domains shown)
VH: B1 VH with V52R, E59Q
VL: B1 VL with E52N
notes: Isotype as printed: G1 fa
B3: Variant C11 (antibody, name in Kabat numbering, V domains shown)
VH: B1 VH with V52S, R54K, E59Q
VL: B1 VL with E52N
notes: Isotype as printed: G1 fa
B4: Variant C12 (antibody, name in Kabat numbering, V domains shown)
VH: B1 VH with V52S, E59Q
VL: B1 VL with E52N
notes: Isotype as printed: G1 fa
B5: Variant C9 (antibody, name in Kabat numbering, V domains shown)
VH: B1 VH with V52R, R54K, E59Q
VL: B1 VL with E52N
notes: Isotype as printed: G1 fa
B6: Variant C39 (antibody, V domains shown)
VH: B1 VH with I48M, V52S, R55K
VL: B1 VL with S28K, E52D
B7: Variant C27 (antibody, name in Kabat numbering, V domains shown)
VH: B1 VH with I48M, V52N, R54S, R55S
VL: B1 VL with E52N
notes: Isotype as printed: G2M3.QL
B8: Variant C29 (antibody, name in Kabat numbering, V domains shown)
VH: B1 VH with I48M, V52N, R54S, R55S
VL: B1 VL
notes: Isotype as printed: G2M3.QL
B9: Variant C40 (antibody, name in Kabat numbering, V domains shown)
VH: B1 VH with I48M, V52S, R55K
VL: B1 VL
notes: Isotype as printed: G2M3.QL
B10: Variant C28 (antibody, V domains shown)
VH: B1 VH with I48M, V52N, R54S, R55S
VL: B1 VL with S28K, E52D
notes: Isotype as printed: G2M3.QL
B11: Variant C34 (antibody, V domains shown)
VH: B1 VH with I48M, V52K, R54S
VL: B1 VL with S28K, E52D
notes: Isotype as printed: G2M3.QL
B12: Variant C38 (antibody, name in Kabat numbering, V domains shown)
VH: B1 VH with I48M, V52S, R55K
VL: B1 VL with E52N
notes: Isotype as printed: G2M3.QL
B13: Variant C35 (antibody, name in Kabat numbering, V domains shown)
VH: B1 VH with I48M, V52K, R54S
VL: B1 VL
notes: Isotype as printed: G2M3.QL
B14: Variant C26 (antibody, name in Kabat numbering, V domains shown)
VH: B1 VH with V52K, R54S, E74K
VL: B1 VL
notes: Isotype as printed: G1 fa; E to K read as E73K
B15: Variant C19 (antibody, name in Kabat numbering, V domains shown)
VH: B1 VH with V52S, R55K
VL: B1 VL
notes: Isotype as printed: G1 fa; also called SRK-SE
B16: Variant C16 (antibody, name in Kabat numbering, V domains shown)
VH: B1 VH with V52R, R54N
VL: B1 VL
notes: Isotype as printed: G1 fa; also called RNR-SE
B17: Variant C15 (antibody, name in Kabat numbering, V domains shown)
VH: B1 VH
VL: B1 VL
notes: Isotype as printed: G1 fa; also called VRR-SE
B18: Variant C41 (antibody, name in Kabat numbering, V domains shown)
VH: B1 VH with I48M, V52S, R55S
VL: B1 VL with E52N
notes: Isotype as printed: G2M3.QL
B19: RKGFE (antibody, IgG1, name in Kabat numbering, V domains shown)
VH: B1 VH with V52R, R54K, R55G, Y57F
VL: B1 VL with E52N
notes: soluble IgG1 from the VH library; Kabat numbers; also called VH variant RKGFE
B20: QRKFH (antibody, IgG1, name in Kabat numbering, V domains shown)
VH: B1 VH with V52Q, R55K, Y57F, E59H
VL: B1 VL with E52N
notes: soluble IgG1 from the VH library; Kabat numbers; also called VH variant QRKFH
B21: RKGFN (antibody, IgG1, name in Kabat numbering, V domains shown)
VH: B1 VH with V52R, R54K, R55G, Y57F, E59N
VL: B1 VL with E52N
notes: soluble IgG1 from the VH library; Kabat numbers; also called VH variant RKGFN
B22: RRGFE (antibody, IgG1, name in Kabat numbering, V domains shown)
VH: B1 VH with V52R, R55G, Y57F
VL: B1 VL with E52N
notes: soluble IgG1 from the VH library; Kabat numbers; also called VH variant RRGFE
B23: RRKFE (antibody, IgG1, name in Kabat numbering, V domains shown)
VH: B1 VH with V52R, R55K, Y57F
VL: B1 VL with E52N
notes: soluble IgG1 from the VH library; Kabat numbers; also called VH variant RRKFE
B24: SNKYL (antibody, IgG1, name in Kabat numbering, V domains shown)
VH: B1 VH with V52S, R54N, R55K, E59L
VL: B1 VL with E52N
notes: soluble IgG1 from the VH library; Kabat numbers; also called VH variant SNKYL
B25: NuhuTacVH with daclizumabVL (antibody, V domains shown)
VH: B1 VH with Q1E, S16A, V52N, R54S, R55T, I70M, E74K, T76I, N77S
VL: B1 VL with E52N
notes: combination antibody
B26: daclizumab VH and NuhuTacVL (antibody, V domains shown)
VH: B1 VH with V52N, R54S, R55T
VL: EIVLTQSPATLSLSPGERATLTCSASSSISYMHWFQQKPGQAPRLLIYTTSNLASGIPARFSGSGSGTDYTLTISSLEPEDFAVYYCHQRSTYPLTFGQGTKVEIK
notes: combination antibody
B27: Variant C37 (antibody, name in Kabat numbering, V domains shown)
VH: B1 VH with I48M, V52K, R54S, R55S
VL: B1 VL
notes: Isotype as printed: G2M3.QL
B28: Variant C43 (antibody, name in Kabat numbering, V domains shown)
VH: B1 VH with I48M, V52S, R55S
VL: B1 VL
notes: Isotype as printed: G2M3.QL

target: T1, human CD25 (recombinant soluble); test: SPR (BIAcore), antibody captured, CD25 injected

For B1, the “Affinity improvement (KD normalized to wild type daclizumab)” value was 17 fold.

In the case of B1, the Kd is reported as 0.029 nM.

In the case of B1, the koff is reported as 3.29e-05 s⁻¹.

B1 showed a kon of 1.24e+06 M⁻¹ s⁻¹.

target: T2, CD25 on Kit225/K6 cells; test: cell-based or functional assay

For B1, the “Functional improvement (inhibition of proliferation of Kit225/K6 cells; IC50 normalized to wild type daclizumab)” value was 1.2 fold.

target: T3, human CD25; test: competition ELISA vs biotinylated daclizumab, fold over wild type

Point of comparison: B5, ELISA fold improvement 3.97 fold. Against it:
- B2 — lower, 3.91 fold
- B3 — lower, 3.47 fold
- B4 — higher, 3.98 fold

target: T5, cynomolgous monkey CD25 (cynomolgous monkey); test: SPR (BIAcore), cynomolgous CD25
T5 construct: also called cmCD25; cm

Point of comparison: B7, Kd 0.263 nM. Against it:
- B6 — 8.5-fold lower, 0.031 nM

target: T5, cynomolgous monkey CD25; test: SPR (BIAcore), cynomolgous CD25; remark: another data set of the same source

Point of comparison: B9, Kd 0.074 nM. Against it:
- B6 — 2.4-fold lower, 0.031 nM
- B8 — within 1.5-fold, 0.098 nM
- B10 — 1.5-fold lower, 0.049 nM
- B11 — within 1.5-fold, 0.088 nM
- B7 — 3.6-fold higher, 0.263 nM
- B12 — within 1.5-fold, 0.1 nM
- B13 — 2.5-fold higher, 0.188 nM

target: T3, human CD25; test: SPR (BIAcore)

Point of comparison: B14, Kd 0.121 nM. Against it:
- B15 — 7.6-fold lower, 0.016 nM
- B2 — 2-fold higher, 0.244 nM
- B3 — within 1.5-fold, 0.138 nM
- B4 — within 1.5-fold, 0.155 nM
- B16 — 5.5-fold lower, 0.022 nM
- B17 — 4.2-fold lower, 0.029 nM
- B5 — within 1.5-fold, 0.181 nM

target: T4, human CD25 on cells; test: cell-based or functional assay

Point of comparison: B10, “PBMC (fold improvement in inhibition of IL2-induced PHA blast proliferation)” value 5.8 fold. Against it:
- B9 — higher, 7.7 fold
- B11 — higher, 6.4 fold
- B12 — the same, 5.8 fold
- B13 — higher, 7.2 fold

Point of comparison: B11, “Kit225 (fold improvement in inhibition of IL2-induced Kit225 proliferation)” value 3.1 fold. Against it:
- B18 — lower, 2.5 fold
- B10 — lower, 2.8 fold
- B12 — higher, 3.6 fold
- B13 — lower, 3 fold

target: T1, human CD25 (recombinant soluble); test: competitive ELISA with biotinylated daclizumab on CD25
Procedure: Wells of 96-well ELISA plates (Nunc-Immuno MaxiSorp plates, Nalge Nunc, Rochester, N.Y.) were coated with 100 μL of 0.2 μg/mL CD25 (Pepro Tech Inc., Rocky Hill, N.J.) in 0.2 M sodium carbonate-bicarbonate buffer (pH 9.4, Pierce, Rockford, Ill.) overnight at 4° C. After washing with Wash Buffer, wells were blocked with 200 μL of Superblock Blocking Buffer (Pierce, Rockford, Ill.) for 30 min and then washed. […] The plate was then washed with washing buffer three times. After washing, 100 μL of 1 μg/mL HRP-conjugated Streptavidin (Pierce) diluted in ELISA buffer was added to each well. After 30 minutes of incubation at room temperature, plates were washed and bound antibodies were detected by addition of ABTS substrate (Kirkegaard & Perry Laboratories, Gaithersburg, Md.). […] PRISM (GraphPad, San Diego) and reported as IC₅₀ wild type/IC₅₀ mutant (fold improvement over wild type control).

Point of comparison: B20, “fold affinity over the parental antibody” value ~10 fold. Against it:
- B19 — the same, ~10 fold
- B21 — the same, ~10 fold
- B22 — the same, ~10 fold
- B23 — the same, ~10 fold
- B24 — the same, ~10 fold

target: T3, human CD25; test: SPR (BIAcore); remark: another data set of the same source

Point of comparison: B11, Kd 0.021 nM. Against it:
- B9 — 1.8-fold lower, 0.012 nM
- B10 — 2.6-fold higher, 0.054 nM
- B12 — 2.2-fold lower, 0.0095 nM
- B13 — 1.6-fold higher, 0.034 nM

target: T1, human CD25 (recombinant soluble); test: competition ELISA on plate-coated CD25: competitor antibody titrated against biotinylated daclizumab, OD415

Point of comparison: B26, EC50 1.18 µg/mL. Against it:
- B25 — 2.5-fold lower, 0.47 µg/mL

target: T3, human CD25; test: competition ELISA vs biotinylated daclizumab, fold over wild type; remark: another data set of the same source

Point of comparison: B12, ELISA fold improvement 8.2 fold. Against it:
- B27 — lower, 4.1 fold
- B9 — lower, 6.8 fold
- B28 — lower, 4.2 fold
- B18 — lower, 6.1 fold
- B10 — lower, 1.6 fold
- B11 — lower, 7.8 fold
- B13 — lower, 7 fold
